System: primary wild type osteoblasts
Experiment: Soluble factors added to osteoblasts during osteogenic induction in presence or absence of Dex
Format: cell-based, mouse
Experimental: FIG. 7. Differential gene regulation in GR^dim osteoblasts and bone organs by GCs and involvement of AP-1 in suppression of IL-11 in osteoblast differentiation. (A-E) Primary osteoblasts were grown until confluence and treated as described in FIG. 4A. qRT-PCR-determined mRNA expression levels of GILZ, Per-1, KLF15, Lif (LIF) and II11 (IL-11) after six hours. (F-H) qRT-PCR-determined mRNA expression level of IL-11 in organ cultures of GR mutant fetal hind legs (F), in dN^Runx2Cre osteoblasts (G) and c-jun^null MEFs (H) after six hours treatment. (I) Chromatin immunoprecipitation of MEFs after six hours. […] IgG precipitation served as negative control and amplification of the input as positive control. […] At day 10, ALP activity was determined and at day 20, Alizarin Red staining was performed. (K) Quantification of ALP-positive cells treated as in (J) after 10 days. (L) qRT-PCR-determined Runx2 mRNA expression level in cells treated as in (J) after 10 days.
FIG. 13. Effects of GR regulated soluble factors on osteoblast cell numbers. […] At day 10 cell counts were determined by automatic microscopy. Data are represented as mean+/−SEM. *<0.05.
FIG. 14. Effects of GR regulated soluble factors on osteoblast cell differentiation. Primary wild type osteoblasts were differentiated with or without Dex. At day 10 the specific ALP activity was determined and is depicted as ALP positive cells in percent in the absence or presence of NGF (A), IL-6 (B), EGF (C) and LIF (D). Data are represented as mean+/−SEM. * p<0.05; ** p<0.01.
Primary osteoblasts were isolated from either embryonic (E18.5) or neonatal calvaria by sequential digestions and cultivated as previously described (David et al., 2005). c-Jun-deficient cells were obtained from previously described mice (Schreiber et al., 1999). […] Differentiation of osteoblasts was determined by staining for ALP activity (ALP kit, Sigma or ELF® Phosphatase Detection Kit, ATCC) or by Alizarin Red staining (Sigma) at indicated time points. Apoptosis was detected by In situ Cell Death Detection Kit (Roche), and proliferation with fluorescent immunohistochemistry using mouse anti-Ki-67 (BD Pharmingen™) and Alexa Fluor® 594-labeled donkey anti-mouse IgG (Molecular Probes™). Quantification of the stainings and cell numbers according to DAPI labeling was performed by automated microscopy using Cellomics ArrayScan and software HCS Scan® (Thermo-Fischer). The factors EGF (Calbiochem), NGF2 (Sigma), IL-6 (ImmunoTools), IL-11 (Antigenix America, Inc.) and LIF (Chemicon) were added to the culture after differentiation at concentrations of 0.8, 4 and 20 ng/ml. qRT-PCR was performed as previously described (Tuckermann et al., 2007). Primer information can be provided upon request.

B1: HB-EGF: heparin binding-epidermal growth factor (protein, UniProt Q99075 63-148, looked up)
Heparin-binding EGF-like …: DLQEADLDLLRVTLSSKPQALATPNKEEHGKRKKKGKGLGKKRDPCLRKYKDFCIHGECKYVKELRAPSCICHPGYHGERCHGLSL
- effect on osteoblast differentiation: inhibitory effect

B2: IL-11: recombinant Interleukin-11 (protein, UniProt P20809 22-199, looked up)
Interleukin-11: PGPPPGPPRVSPDPRAELDSTVLLTRSLLADTRQLAAQLRDKFPADGDHNLDSLPTLAMSAGALGALQLPGVLTRLRADLLSYLRHVQWLRRAGGSSLKTLEPELGTLQARLDRLLRRLQLLMSRLALPQPPPDPPAPPLAPPSSAWGGIRAAHAILGGLHLTLDWAVRGLLLLKTRL
- rescue of Dex-impaired osteoblast differentiation (ALP positive cells) (day 10, with Dex): potently antagonized
- rescue of Dex-reduced osteoblast cell numbers (day 10, with Dex): not rescuing
- Dex suppression of ALP activity, of Runx2 expression and calcification (in the presence of IL-11): fully restored
